Experimental data published in paper PMC12753870, “A novel fully human anti-ROR1 antibody PBA-0405 optimized for ADCC, induces potent anti-tumor activity against both solid and hematological malignancies” (Frontiers in Immunology, 2025).
One block for each molecule: values may come before it.

What was measured:
[1] = target: recombinant FcγRIIIA (CD16), allotype 158F (UniProt P08637); test: SPR; Biacore 8K; biotinylated recombinant FcγR proteins immobilised on CAP chips; antibodies as analytes in PBS-P+ buffer, 30 μL/min; 1:1 Langmuir model
[2] = target: recombinant FcγRI (UniProt P12314); test: SPR; Biacore 8K; biotinylated FcγR immobilised on CAP chip, antibody as analyte in PBS-P+, 30 µL/min; 1:1 Langmuir fit, KD = koff/kon; doses of 22.0405.aF 8-500 nM for CD64, 31-2000 nM for CD32b; the legend of Supplementary Figure 2 says 'BLI or SPR'
[3] = target: recombinant FcγRII B/C (UniProt P31994); test: as above
[4] = target: recombinant FcγRIIIB (UniProt O75015); test: SPR; Biacore 8K; biotinylated FcγR immobilised on CAP chip, antibody as analyte in PBS-P+, 30 µL/min; steady state affinity; doses of 22.0405.aF 240-4000 nM for CD32a, 3-200 nM for CD16b; the legend of Supplementary Figure 2 says 'BLI or SPR'
[5] = target: recombinant FcγRIIA 167H (UniProt P12318); test: as above
[6] = target: ROR1 endogenously expressed on JeKo-1 cells (human (endogenous in JeKo-1)) (UniProt Q01973)
[7] = target: ROR1 endogenously expressed on JeKo-1 cells (human (endogenous in JeKo-1)) (UniProt Q01973); remark: listed apart in the source
[8] = target: human ROR1 on transfected CHO-K1 cells (CHO-ROR1) (human) (UniProt Q01973)
[9] = target: T1, recombinant Kringle (KRD) domain of human ROR1 (Homo sapiens, UniProt Q01973); test: BLI; Octet RED384; antibodies immobilised on AR2G sensors; dipped in 500 nM recombinant Ig-like, Frizzled or Kringle domain for 150 s, dissociation 200 s; conditions: both partners purified
T1 construct: ROR1, human, Kringle (KRD) domain; source: bought: Acro Biosystems

[10] = target: T2, recombinant Ig-like (IG) domain of human ROR1 (aa 39–151) (Homo sapiens, UniProt Q01973); test: as above; conditions: both partners purified
T2 construct: ROR1, human, Ig-like domain, aa 39–151; source: bought: Acro Biosystems

[11] = target: T3, recombinant human ROR1/Fc (full-length extracellular domain of ROR1) (Homo sapiens, UniProt Q01973); test: BLI; Octet RED384; antibodies captured on FAB2G (anti-hIgG CH1) biosensors at 5 μg/mL; ROR/Fc as analyte 200–3.13 nM in 10× Kinetics Buffer; 200 s association, 500 s dissociation; 1:2 (bivalent analyte) model; apparent KD = koff1/kon1; conditions: both partners purified
T3 construct: receptor tyrosine kinase-like orphan receptor 1 (ROR1), human, full-length extracellular domain; Fitted as a bivalent analyte (1:2 model); also called hROR1; recombinant extracellular part of ROR1; source: bought: R&D Systems

[12] = target: T4, recombinant mouse ROR1/Fc (Mus musculus, UniProt Q9Z139); test: as above; conditions: both partners purified
T4 construct: ROR1, mouse; also called mROR1; source: bought: R&D Systems

[13] = target: recombinant FcγRIIIA (CD16), allotype 158V (UniProt P08637); test: SPR; Biacore 8K; biotinylated recombinant FcγR proteins immobilised on CAP chips; antibodies as analytes in PBS-P+ buffer, 30 μL/min; 1:1 Langmuir model
[14] = target: T5, human ROR1 on transfected CHO-K1 cells (CHO-ROR1) (Homo sapiens, UniProt Q01973); test: flow cytometry on cells; antibody titrated on CHO-K1 cells transfected with ROR1, ROR2 or empty vector, or on cells expressing ROR1 endogenously (JeKo-1); 30 min on ice; detected with APC goat anti-human IgG Fcγ; conditions: one partner purified
T5 construct: receptor tyrosine kinase-like orphan receptor 1 (ROR1), human; also called hROR1; CHO cells overexpressing ROR1; source: CHO-K1 cells, stably transfected, on cells

[15] = target: T6, human ROR2 on transfected CHO-K1 cells (CHO-ROR2) (Homo sapiens, UniProt Q01974); test: as above; conditions: one partner purified
T6 construct: receptor tyrosine kinase-like orphan receptor 2 (ROR2), human; also called hROR-2; source: CHO-K1 cells, transfected, on cells

Sequence of recombinant FcγRIIIA (CD16), allotype 158F (P08637 17-208): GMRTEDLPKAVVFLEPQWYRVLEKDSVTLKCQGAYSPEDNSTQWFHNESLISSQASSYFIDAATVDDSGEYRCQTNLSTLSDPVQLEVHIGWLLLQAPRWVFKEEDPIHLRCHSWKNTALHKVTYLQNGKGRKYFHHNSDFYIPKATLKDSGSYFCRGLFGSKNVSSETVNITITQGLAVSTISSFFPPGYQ
T4 sequence (Q9Z139 30-406): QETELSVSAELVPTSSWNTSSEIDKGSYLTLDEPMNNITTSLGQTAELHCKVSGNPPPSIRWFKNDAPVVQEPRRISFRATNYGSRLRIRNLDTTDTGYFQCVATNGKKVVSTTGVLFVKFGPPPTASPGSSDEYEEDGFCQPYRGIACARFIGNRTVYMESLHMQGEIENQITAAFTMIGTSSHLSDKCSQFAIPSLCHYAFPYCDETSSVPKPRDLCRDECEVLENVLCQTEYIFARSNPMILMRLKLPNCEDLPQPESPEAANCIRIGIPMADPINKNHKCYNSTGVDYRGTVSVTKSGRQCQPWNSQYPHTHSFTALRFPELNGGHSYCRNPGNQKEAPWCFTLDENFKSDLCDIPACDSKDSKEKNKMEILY
Sequence of recombinant FcγRII B/C (P31994 43-217): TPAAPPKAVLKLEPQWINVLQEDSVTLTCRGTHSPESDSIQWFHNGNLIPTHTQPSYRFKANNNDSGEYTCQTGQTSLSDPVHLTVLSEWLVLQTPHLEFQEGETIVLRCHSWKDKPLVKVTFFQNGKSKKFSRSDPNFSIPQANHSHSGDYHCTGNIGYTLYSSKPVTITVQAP
Sequence of recombinant FcγRI (P12314 16-292): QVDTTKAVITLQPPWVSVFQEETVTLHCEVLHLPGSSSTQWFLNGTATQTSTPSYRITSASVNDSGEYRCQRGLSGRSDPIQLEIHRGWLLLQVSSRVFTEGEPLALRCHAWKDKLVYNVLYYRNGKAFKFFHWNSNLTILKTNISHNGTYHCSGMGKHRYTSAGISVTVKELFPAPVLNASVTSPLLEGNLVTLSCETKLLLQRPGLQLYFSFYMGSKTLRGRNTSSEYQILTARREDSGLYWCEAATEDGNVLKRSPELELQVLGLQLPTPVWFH
Sequence of recombinant FcγRIIIB (O75015 17-200): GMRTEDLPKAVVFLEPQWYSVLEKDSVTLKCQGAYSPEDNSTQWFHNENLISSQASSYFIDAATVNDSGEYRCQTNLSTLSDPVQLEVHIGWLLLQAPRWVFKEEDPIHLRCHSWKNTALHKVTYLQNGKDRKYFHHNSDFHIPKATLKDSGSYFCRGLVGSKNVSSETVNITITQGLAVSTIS
Sequence of recombinant FcγRIIA 167H (P12318 34-217): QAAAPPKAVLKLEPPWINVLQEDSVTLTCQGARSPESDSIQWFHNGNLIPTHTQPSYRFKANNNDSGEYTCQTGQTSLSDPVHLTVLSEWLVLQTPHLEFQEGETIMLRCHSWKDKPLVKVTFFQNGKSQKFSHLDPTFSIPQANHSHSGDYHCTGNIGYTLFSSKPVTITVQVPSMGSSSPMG
Sequence of recombinant FcγRIIIA (CD16), allotype 158V (P08637 17-208 F176V): as the sequence (P08637 17-208) above, with F160V counted along it

- Kd [1]: 3400 nM
Molecule: zilovertamab-like antibody (anti-ROR1 mAb mimicking zilovertamab, humanized native IgG1)

- Kd [2]: 0.054 nM
- Kd [3]: > 4000 nM
- Kd [4]: > 4000 nM
- Kd [5]: 2200 nM
Molecule: zilovertamab-like antibody

- ADCC by healthy donor NK cells against primary B-CLL cells (65%–99% ROR1-positive); EC50 [6]: 0.018 nM
- NK cell-mediated ADCC towards Raji cells overexpressing human ROR1 (Raji-ROR1); EC50; no statistically significant ADCC towards wild-type Raji cells [8]: 0.002 nM
- Kd [1]: 57 nM
B1: 22.0405.aF (afucosylated form of 22.0405, fully human anti-ROR1 IgG1) (antibody, V domains shown)
VH: EVQLLESGGGLVQPGGSLRLSCAASGFTFHKYGMAWVRQAPGKGLEWVSSIDDRGRYTYYADSVKGRFTISRDNSKNTLYLQMNSLRAEDTAVYYCARGSYIIWSALDYWGQGTLVTVSS
VL: DIQMTQSPSSLSASVGDRVTITCRPNQNIATYINWYQQKPGKAPKLLIYHDNKRPSGVPSRFSGSGSGTDFTLTISSLQPEDFATYYCQQYEKLPWTFGQGTKVEIK
- tumor cell killing with total PBMCs as effector cells; EC50 [7]: 0.02 nM

- binding result [9]: no binding (tested: 500 nM)
- binding result [10]: no binding (tested: 500 nM)
- Kd [11]: 60 nM
- Kd [12]: 240 nM
- Kd [13]: 217 nM
- Kd [1]: 690 nM
- EC50 [14]: 0.56 nM
- binding result [15]: no binding
B2: 22.0405 (native, fucose-containing fully human anti-ROR1 IgG1 mAb) (antibody, V domains shown)
VH: B1 VH
VL: B1 VL
notes: human IgG1 heavy chain constant region; IgG1; source: CHOK1 cells (BioIntron, China)
